Test results published in patent US20190351049A1 (Regeneron, published 2019).
Residue numbers refer to the chain shown, from its start.

B1: H1M15277N (antibody, V domains shown)
V domain 1: EVQLLESGGGLVQPGGSLRLSCAASGFTFSSYAMSWVRQAPGKGLEWVSAISGRGGNTYYADSVKGRFTISRDNSKNTLFLQMNTLRAEDTAVYYCAKDRGFGFFDIWGRGTLATVSS
V domain 2: not shown
B2: H2aM15271N (antibody, V domains shown)
VH: EVQLVESGGALVQPGGSLRLSCAASGFIFGSYEMNWVRQAPGKGLEWLSYISSSGSTIYYADSVKGRFTISRDNAKNSLYLQMNSLRAEDTAVYYCARERGQLGRGGYYYYGMDVWGQGTTVTVSS
VL: EIVLTRSPGTLSLSPGERATLSCRASQSVSSSYLAWYHQKPGQAPRLLMYGTSIRATGIPDRFSGSGSGTDFTLTISRLEPEDFAVYYCQQYGSSPPWTFGQGTKVEIK
B3: H2bM15292N (antibody, V domains shown)
VH: QVQLVQSGAEVKKPGSSVKVSCKASGGTFNNYAISWVRQAPGQGLEWMGGIIPFFGTTNYAQKFQDRVTITSDDSTITAYMELSRLRSEDTAVYYCARDEPRRDGYNYYHYYYMDVWGQGTTVTVSS
VL: DIQMTQSPSSLSASVGDRVTITCRASQSINSYLNWYQQKPGKAPNLLIYAASSLQSGVPSRFSGSGSGTDFTLTISSLHPEDFATYYCQQSYSTPPITFGQGTRLEIK
B4: H1M15267N (antibody, V domains shown)
VH: QVQLQESGPGLVKPSETLSLTCTVSGGSISSYYWSWIRQPPGKGLEWIGYIYYSGSPNYNPSLKSRVTISVDTSKNQFSLKLTSVTAADTAVYYCARSLNWGPPFDYWGQGTLVTVSS
VL: not shown
B5: H1M15290N (antibody, V domains shown)
VH: QVQLVQSGAEVKKPGSSVKVSCKASGGTFSTYAISWVRQAPGQGLEWMGGIIPFFGTANYAQKFQGRVTITTDESTSTAYMELSSLRSEDTAVYYCAREGTYYDSLTGYYTHYYRMDVWGQGTTVTVSS
VL: not shown
B6: H2aM15278N (antibody, V domains shown)
VH: QVQLVQSGAEVKKPGASVKVSCKASGYTFTSHGISWVRQAPGQGFEWMGWIGTYNSNTDYAQNFQGRVTMTTDTSTSTAYMELRNLRSDDTAVYYCARERGPYYGMDVWGQGTTVTVSS
VL: EIVLAQSPGTLSLSPGERATLSCRASQSVNSNYLAWYQQKPGQAPRLLIYGASSRATGIPDRFSGSGSGTDFTLTISRLEPEDFAVYYCQQYGNSLTFGPGTKVDFK
B7: H2aM15281N (antibody, V domains shown)
VH: QVQLVQSGAEVKKPGSSVKVSCKASKDTFSSYAISWVRQAPGQGLEWMGGIIPFFGTTTYEQKFQGRVTITTDESTRTAYMELSSLRSEDSAVYYCARDRPCISSAGTRYHYCVMDVWGQGTTVTVSS
VL: not shown
B8: H2aM15272N (antibody, V domains shown)
VH: B7 VH with Q3R, K26G, G56V, E61A, K63N
VL: not shown
B9: H2aM15287N (antibody, V domains shown)
VH: QLQLQESGPGLVKPSETLSLTCTVSGGSISSGNYYWGWIRQPPGKGLEWFGTIYYSGSTYYNPSLKSRVTISVDTSKNQFSLKLSSVTAADTAVYYCARRAAVGHFDYWGQGTLVTVSS
VL: DIQMTQSPSTLSASVGDRVTITCRASQSISTWLAWYQQKPGKAPKLLIYEASSLESGVPSRFSGSGFGTEFTLTISRLQPDDFATYFCQQYNTYWTFGQGTKVEIK
B10: H1M15269N (antibody, V domains shown)
VH: EVQLLESGGGLVQPGGSLRLSCPASGFTFSNYAMTWVRQAPGKGLEWVSAISGSGATTKYADSVKGRFTISRDNSRNTLYLQMNSLRAEDTAVYYCAKGGSGSYFPYYYYGLDVWGQGTTVTVSS
VL: EIVMTQSPATLSVSPGDSATLSCRASQTVSSNLAWYQQKPGQAPRLLIYGASTRATGIPARFSGSGSGTEFTLTISSLQSEDFAVYYCQQYYNWWTFGQGTKVEIK
B11: H1M15289N (antibody, V domains shown)
VH: QVQLQESGPGLVKPSETLSLTCTVSGGSISSYYWSWIRQPPGKGLEWIGYIYYSGSANYNPSLKSRVTISVDTSKNQFSLKLSSVTAADTAVYYCVRDRDLLLDHWGQGTLVTVSS
VL: EIVMTQSPATLSVSPGKRATLSCRASQSVSSNLAWYQQKPGQAPRLLIYGASTRTTGFPARFSGSGSGTDFTLTISSLQSEDFAVYYCQQYNNWPYTFGQGTMLEIK
B12: H2aM15270N (antibody, V domains shown)
VH: EVQLLESGGGLEQPGGSLRLSCAASGFTFSSYAMIWVRQAPGKGLEWVSTISGSGVNTYYADSVKGRFTISRDNSKNTLHLQMNSLRAEDTAVYHCAKEGLDCANGVCYNYYGMDVWGQGTTVTVSS
VL: DIQMTQSPSSLSASVGDRVTITCRASQSINSFLNWYHQKPGKAPKFLIYSASNLQSGVPSRFSGSGSGTDFTLTISSLQPEDFSTYYCQQSYSIPLTFGGGTKVEIK
B13: H1M15293N (antibody, V domains shown)
VH: QVQLVQSGAEVKKPGSSVKVSCKVSGVTFSSYAISWVRQAPGQGLEWMGGIIPFFGTASYAQKFQGRVTVTTDESTSTAYMEVSSLRSEDTAVYYCARDNPELTKEGYYHYYAMDVWGQGTTVTVSS
VL: not shown
B14: H2bM15291N (antibody, V domains shown)
VH: QVQLVQSGAEVKKPGSSVKVSCKASGDTFSTYAVSWVRQAPGQGLEWMGGIIPFFGTSNYAQKFQGRVTITTDESTTTAYMELNSLRSEDTAVYYCAREITMVRGLTNYHFYGMDVWGQGTTVTVSS
VL: not shown

What was measured:
[1] = molecular target: T1, MERS-CoV spike protein (EMC/2012), wt (MERS-CoV (isolate EMC/2012), UniProt K9N5Q8 18-1353); test: cell-based or functional assay
[2] = molecular target: T1, MERS-CoV spike protein (EMC/2012), wt; test: cell-based or functional assay; remark: listed apart in the source

Binder	IC50 against MERSpp [1] [nM]	IC50 against live virus (EMC2012) [1] [nM]	% Neutralization (.025 µg/ml), MERSpp infectivity [2] [%]	Neutralization IC50 (M), MERSpp infectivity [2] [M]
B1	0.0646	0.287	99	1.33e-10
B2	0.127	1.03	97	2.74e-10
B3	0.113	2.26	91	3.57e-10
B4	0.0998	0.891	99	1.49e-10
B5	0.21	2.55	83	5.84e-10
B6	0.142	0.644	98	2.11e-10
B7	0.0785	0.292	98	4.64e-10
B8	0.0723	0.569	97	2.21e-10
B9	2.93	8.92	5	3.59e-09
B10	0.688	6.8	40	1.02e-09
B11	0.281	3.15	89	4.25e-10
B12	0.102	0.711	98	3.25e-10
B13	0.258	2.58	86	4.36e-10
B14	0.186	2.22	90	3.05e-10
